Target: 鸡传染性法氏囊病病毒 B87株
Assay: cell-based or functional assay

B1: IBDV-VP2 scFv30抗体 (scFv)
scFv: AVTLDESGGGLQTPGGALSLVCKGSGFDFSSHGMAWVRQAPGKGLEWVAGIGSSSSGTAYGSAVQGRATISRDNGQSTVRLQLNNLRAEDTGTYYCAKSVGDCAYGYSCAAGGIDAWGHGTEVIVSSASGGGGSGGGGSGGGGSVLTQPSSVSANPGETVKITCSGGGGSYGWFQQKSPGSAPVTVIYNNNNRPSDIPSRFSGSKSGSTATLTITGVQAEDEAVYYCGGSEDSSAGYVGIFGAGTTLTVLG
阻断或抑制CPE的最小蛋白浓度: 4.69 µg/mL
